Patent publication US20060275295A1 (published 2006)
Values belong to the binder of their own block, whether it stands above or below them.

Assays:
[1] = target: T1, GFP-THAP1 fusion protein (pEGFP.C2-THAP1) (human, UniProt Q5RCE4 1-213 (Pongo abelii entry)); assay: in vivo interaction assay: co-transfection in primary human endothelial cells, confocal microscopy
T1 construct: Expressed in transfected primary human endothelial cells (HUVEC); not shown: Enhanced Green Fluorescent Protein (EGFP) of pEGFP.C2 (Clontech), N-terminal
T1 sequence: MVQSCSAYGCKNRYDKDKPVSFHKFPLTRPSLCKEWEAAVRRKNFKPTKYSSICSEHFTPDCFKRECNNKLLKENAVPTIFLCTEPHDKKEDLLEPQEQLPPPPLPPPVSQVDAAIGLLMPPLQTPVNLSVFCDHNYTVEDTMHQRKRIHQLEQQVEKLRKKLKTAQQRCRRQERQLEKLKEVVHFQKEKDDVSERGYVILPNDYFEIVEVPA
Source text: To provide further evidence for a physiological interaction between THAP1 and Par4 in vivo interactions between THAP1 and PAR4 were investigated. For that purpose, confocal immunofluorescence microscopy was used to analyze the subcellular localization of epitope-tagged Par4DD in primary human endothelial cells transiently cotransfected with pEF-mycPar4DD eukaryotic expression vector and GFP or GFP-THAP1 expression vectors (pEGFP.C2 and pEGFP.C2-THAP1, respectively). To generate pEF-mycPar4DD, mycPar4DD (amino acids 250-342) was amplified by PCR using pGBKT7-Par4DD as template, with primers myc.BD7 (5′-[…]-3′) (SEQ ID NO: 195) and Par4.9 (5′-[…]-3′) (SEQ ID NO: 196), and cloned into the XbaI and NotI sites of the pEF-BOS expression vector (Mizushima and Nagata, Nucleic Acids Research, 18:5322, 1990). Primary human endothelial cells from umbilical vein (HUVEC, PromoCell, Heidelberg, Germany) were grown in complete ECGM medium (PromoCell, Heidelberg, Germany), plated on coverslips and transiently transfected in RPMI medium using GeneJammer transfection reagent according to manufacturer instructions (Stratagene, La Jolla, Calif., USA). […] Cells were then washed three times 5 min at room temperature in PBS-BSA, and incubated for 1 hr with Cy3 (red fluorescence)-conjugated goat anti-mouse (1/1000, Amersham Pharmacia Biotech) secondary antibodies, diluted in PBS-BSA. […]

[2] = target: T2, human THAP1 (THanatos-Associated Protein-1), full length (human, UniProt Q9NVV9 1-213); assay: yeast two-hybrid with THAP1 bait and GST pull-down with GST-THAP1
T2 construct: Used as Gal4-BD (pGBKT7) or Gal4-AD (pGADT7, pGAD424) fusion in yeast two-hybrid and as 35S-labelled in vitro translated protein (template pGBKT7-THAP1); also called hTHAP1; THAP1 wild type
T2 sequence: T1 sequence

[3] = target: T2, human THAP1 (THanatos-Associated …); assay: yeast two-hybrid, AH109, His/Ade selection
Source text: 285) and CXCL10-2 (5′-[…]-3′) (SEQ ID NO. 286), No. 2403734 (IFNγ) with primers IFN-1 (5′-[…]-3′) (SEQ ID NO: 287) and IFN-2 (5′-[…]-3′) (SEQ ID NO: 288). The PCR products were digested with EcoRI and BamHI, and cloned between EcoRI and BamHI cloning sites of vector pGBKT7 (Clontech).

binding result [1]: binds
B1: myc-Par4DD (epitope-tagged Par4DD, amino acids 250-342, pEF-mycPar4DD) (other, not shown: small tags and cut ends)
chain: GFPRYNRDANVSGTLVSSSTLEKKIEDLEKEVVTERQENLRLVRLMQDKEEMIGKLKEEIDLLNRDLDDIEDENEQLKQENKTLLKVVGQLTR
notes: Expressed in transfected primary human endothelial cells (HUVEC)

binding result [2]: binds
B2: SLC/CCL21ΔCOOH (SLC/CCL21 deletion mutant lacking the basic carboxy-terminal extension, amino acids 102-134) (ligand)
chain: SDGGAQDCCLKYSQRKIPAKVVRSYRKQEPSLGCSIPAILFLPRKRSQAELCADPKELWVQQLMQHLDKTPSPQKPAQG
notes: The BamHI-PstI fragment is said to encode SLC amino acids 24-102

binding result [3]: binds
B3: human chemokine CXCL9, mature form (amino acids 23-125) (ligand)
chain: TPVVRKGRCSCISTNQGTIHLQSLKDLKQFAPSPSCEKIEIIATLKNGVQTCLNPDSADVKELIKKWEKQVSQKKKQKNGKKHQKKKVLKVRKSQRSRQKKTT
notes: Gal4 fusion in yeast or in vitro translated (pGBKT7 or pGADT7 template); tags not built in; also called MIG/CXCL9; MIG
